Laboratory results published in paper PMC7064642.

Target: importin-α/β carrier protein complex (α/β importin heterodimer)
Test: MST; importin β labelled with Cy3; α/β importin heterodimers at equimolar 50 nM; MNT serially diluted from 1 µM (MNT_(N-EGF)) or 4 µM (MNT_(N-affibody), MNT_(C-EGF)); 20 mM HEPES pH 7.4, 110 mM KCl, 5 mM NaHCO3, 5 mM MgCl2, 0.1 mM CaCl2, 1 mM EGTA, 1 mM DTT; Monolith NT.115

6His-DTox-HMP-NLS-EGF modular nanotransporter (MNT_(C-EGF))
Kd: 127 nM

EGF-6His-DTox-HMP-NLS modular nanotransporter (MNT_(N-EGF))
Kd: 15.8 nM
